Experimental data reported in paper PMC10333884, “Large‐scale phosphomimetic screening identifies phospho‐modulated motif‐based protein interactions” (Molecular Systems Biology, 2023).
Blank lines part the entries; values can stand above or below the binder they belong to.

What was measured:
GGA1 VHS (human), Q9UJY5 = target: T1, GGA1 VHS (human), Q9UJY5; assay: fluorescence polarisation; displacement of a FITC-labelled probe peptide (5 nM in the measurement) from the protein domain (1-2 fold over the probe's KD) by a dilution series of unlabelled peptide; room temperature; 50 mM sodium phosphate pH 7.4; KD calculated from the displacement curve; for KPNA4 ARM one probe for each pocket
T1 chain: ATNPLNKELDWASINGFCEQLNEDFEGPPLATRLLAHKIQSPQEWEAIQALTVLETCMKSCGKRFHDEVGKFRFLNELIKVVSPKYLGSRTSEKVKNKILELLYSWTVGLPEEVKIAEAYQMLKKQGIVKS

MAP1LC3A (human) = assay: FP; conditions: modification not given
[1] = target: T2, TSG101 UEV (human), Q99816; assay: FP; conditions: modification not given
T2 chain: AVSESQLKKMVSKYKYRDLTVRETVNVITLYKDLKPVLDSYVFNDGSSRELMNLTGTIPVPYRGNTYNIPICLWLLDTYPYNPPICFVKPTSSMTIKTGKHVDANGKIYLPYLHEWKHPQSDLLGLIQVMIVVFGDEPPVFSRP

[2] = target: SNX27 PDZ (human), Q96L92; assay: FP; conditions: modification not given
RANBP2 RanBD4 (human) = assay: fluorescence polarisation; displacement of a FITC-labelled probe peptide (5 nM in the measurement) from the protein domain (1-2 fold over the probe's KD) by a dilution series of unlabelled peptide; room temperature; 50 mM sodium phosphate pH 7.4; KD calculated from the displacement curve; for KPNA4 ARM one probe for each pocket

Binder: DLLESPDVGLLKLAS (modifications not checked) [JUN_(59–73), phosphomimetic (E), P05412 59-73]
Kd (GGA1 VHS (human), Q9UJY5): 450 µM

Binder: ETYYLSDEPLLGPPVG (modifications not checked) [GTSE1_(145–160), phosphomimetic (E), Q9NYZ3 145-160]
Kd (GGA1 VHS (human), Q9UJY5): 199 µM

Binder: NGCSSPTAPLEPMSP [GJA1 E]
IC50 [1]: 232 µM

Binder: GMVSETSFNGG [DAXX E]
IC50 [2]: 117 µM

Binder: HSGNVEPTAPPYLQES [TMEM55A E]
IC50 [1]: 37 µM

Binder: QNLSRSWHDVQVSSAY [TPD52L2 pS]
IC50 (MAP1LC3A (human)): 60 µM

Binder: GMVSSTSFNGG [DAXX pS]
IC50 [2]: 427 µM

Further lines, results first:

IC50 (MAP1LC3A (human)): 223 µM
Binder: QNLSREWHDVQVSSAY [TPD52L2 E]

IC50 [1]: 34 µM
Binder: HSGNVTPTAPPYLQES [TMEM55A pS]

IC50 [1]: 420 µM
Binder: NGCSSPTAPLSPMSP [GJA1 pS]

Kd (RANBP2 RanBD4 (human)): 470 µM
Binder: KYSDDTPLPEPSYKYN (modifications not checked) [DHX38_(260–275), phosphomimetic (E), Q92620 260-275]

Kd (GGA1 VHS (human), Q9UJY5): 96 µM
Binder: INLFEKEKEMKKSPTS (modifications not checked) [GTSE1_(145–160), wild‐type, Q9NYZ3 145-160]
